The values that follow come from article PMC7561103, “Notch dimerization and gene dosage are important for normal heart development, intestinal stem cell maintenance, and splenic marginal zone B-cell homeostasis during mite infestation” (PLoS Biology, 2020).

The target of one data set is T1, mouse RBPj (aa 53–474) (mouse, UniProt P31266 53-474).
T1 construct: RBPj (CSL), mouse, residues 53-474; also called CSL
The data set can be described thus: native gel or EMSA; Notch transcription complexes assembled on fluorescent DNA probes with CSL sites (1.75 nM each probe); RBPj 2.5 to 640 nM in 4-fold steps, with or without N1ICD and MAML at 2 uM; native polyacrylamide gel. The settings on record: both partners purified. (A gel shift assay detects complexes by their altered migration in electrophoresis.)

Data set [1] concerns the molecule itself. The data set can be described thus: native gel or EMSA; 1xSPS probe; band intensities fitted to a 2-site binding model with cooperativity factor C (Kd,2nd = Kd,1st/C); RBPj 2.5 to 640 nM, N1ICD and MAML at 2 uM; association of two NTCs on DNA.

T1 sequence (P31266 53-474): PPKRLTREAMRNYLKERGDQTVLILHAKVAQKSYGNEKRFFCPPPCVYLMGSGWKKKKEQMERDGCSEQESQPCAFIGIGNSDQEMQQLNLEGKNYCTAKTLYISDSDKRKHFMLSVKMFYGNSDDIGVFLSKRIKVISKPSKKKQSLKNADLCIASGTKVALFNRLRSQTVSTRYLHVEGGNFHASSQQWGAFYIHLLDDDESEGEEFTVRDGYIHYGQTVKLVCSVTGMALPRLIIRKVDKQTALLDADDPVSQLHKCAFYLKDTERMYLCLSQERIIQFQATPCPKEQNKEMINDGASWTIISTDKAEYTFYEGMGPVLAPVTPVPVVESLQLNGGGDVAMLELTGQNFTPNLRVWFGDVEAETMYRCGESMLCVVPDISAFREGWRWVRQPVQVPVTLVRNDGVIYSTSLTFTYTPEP

B1: human SMT3-MAML1 (aa 1–280) (domain or fragment, UniProt Q92585 1-280, looked up)
chain: MVLPTCPMAEFALPRHSAVMERLRRRIELCRRHHSTCEARYEAVSPERLELERQHTFALHQRCIQAKAKRAGKHRQPPAATAPAPAAPAPRLDAADGPEHGRPATHLHDTVKRNLDSATSPQNGDQQNGYGDLFPGHKKTRREAPLGVAISSNGLPPASPLGQSDKPSGADALQSSGKHSLGLDSLNKKRLADSSLHLNGGSNPSESFPLSLNKELKQEPVEDLPCMITGTVGSISQSNLMPDLNLNEQEWKELIEELNRSVPDEDMKDLFNEDFEEKKD
notes: Mastermind-like 1 (MAML1), human, residues 1-280; also called MAML protein; Mastermind-like
For the molecule B1, in the data set with mouse RBPj (aa 53–474), the binding result is on record as “binds”.

B2: mouse N1ICD (aa 1744–2113) (domain or fragment, UniProt Q01705 1744-2113, looked up)
chain: VLLSRKRRRQHGQLWFPEGFKVSEASKKKRREPLGEDSVGLKPLKNASDGALMDDNQNEWGDEDLETKKFRFEEPVVLPDLSDQTDHRQWTQQHLDAADLRMSAMAPTPPQGEVDADCMDVNVRGPDGFTPLMIASCSGGGLETGNSEEEEDAPAVISDFIYQGASLHNQTDRTGETALHLAARYSRSDAAKRLLEASADANIQDNMGRTPLHAAVSADAQGVFQILLRNRATDLDARMHDGTTPLILAARLAVEGMLEDLINSHADVNAVDDLGKSALHWAAAVNNVDAAVVLLKNGANKDMQNNKEETPLFLAAREGSYETAKVLLDHFANRDITDHMDRLPRDIAQERMHHDIVRLLDEYNLVRSPQ
notes: Notch1 intracellular domain (RAM-ANK), mouse, residues 1744-2113; also called N1 RAM-ANK domain; WT N1ICD
As for B2, in data set [1], the “fold stronger binding of the NTC to the second site than to the first site (cooperativity on 1xSPS)” value was found to be 5 fold. Moreover, the binding result with mouse RBPj (aa 53–474) was “binds”.

B3: mouse N1^RAICD (aa 1744–2113) (domain or fragment, UniProt Q01705 1744-2113, looked up)
chain: VLLSRKRRRQHGQLWFPEGFKVSEASKKKRREPLGEDSVGLKPLKNASDGALMDDNQNEWGDEDLETKKFRFEEPVVLPDLSDQTDHRQWTQQHLDAADLRMSAMAPTPPQGEVDADCMDVNVRGPDGFTPLMIASCSGGGLETGNSEEEEDAPAVISDFIYQGASLHNQTDRTGETALHLAARYSRSDAAKRLLEASADANIQDNMGRTPLHAAVSADAQGVFQILLRNAATDLDARMHDGTTPLILAARLAVEGMLEDLINSHADVNAVDDLGKSALHWAAAVNNVDAAVVLLKNGANKDMQNNKEETPLFLAAREGSYETAKVLLDHFANRDITDHMDRLPRDIAQERMHHDIVRLLDEYNLVRSPQ
notes: Notch1 intracellular domain (RAM-ANK), mouse, residues 1744-2113, with Arg1974 in the ANK domain changed to alanine; also called RA mutant; N1^R1974A
Turning to B3, the binding result with mouse RBPj (aa 53–474) is given as “binds”.
